From the DeepSol protein solubility set come the findings set out here.

The series is described as follows: soluble on expression in E. coli; label from the status in PepcDB or PDB records.
“MAHHHHHHMDEYDYNYATYDIDNFTNNFEDNLINYNQIDFINDNAEINNYSNEYYAYDEDLVEENVSEKRIHNKVLLSNDNEFDNNLINISNEIKTENSNNDTSLLKKRKIINDILLNIKKKMKKNDTLCIICLQNEKKYTFTCCYEYYCSLECFKKHDQQKCRNQNKNEPKISGSHNINMDDIKNSNHQKYEDTYYYQNEEDINKKQNDKVIENTIKLDNENKKNEINNINDMDTTCSNFPNNNLSTSLLNNDNNIPNNNENSESSDDYTDDYDMLTEEQKKKLKEDHTLKILLKNNYVREVFKQFTLSNDKIGYLSHYINDPTIVQVIDHIMKTIDDT”: the “soluble on expression in E. coli” value is given as “not soluble”.
The result for “MAHHHHHHMDKAKTLEVLRGMKFMQRKEEAKRRAAFEVAQRDEIERQLLHPGTGSSGASGGVSDGGSSALRDRGGGGPVRATVLYDDSFPTHAYSLSRRSFTETLGGGGAIPVAAGLGDTDAHLEGSAVESRVSLKDVGEAQASADAALDDSDVASDEEVADLWGGEDAEGELNDPTAASDRRNQGVKRTRDRRGDRNQHACSDGRFIVKPSLRAPKLPRRLQETVAEQKRQRAEEEGDMNM” reads “soluble”; that for “MAHHHHHHMDKLISNNKLKLSVVLLGGLCSLAYYHLKNKFHLSQFCFSKKWFSEFSIMWPGQAFSLKIKKILYETKSKYQNVLVFESTTYGKVLVLDGVIQLTEKDEFAYHEMMTHVPMTVSKEPKNVLVVGGGDGGIIRELCKYKSVENIDICEIDETVIEVSKIYFKNISCGYEDKRVNVFIEDASKFLENVTNTYDVIIVDSSDPIGPAETLFNQNFYEKIYNALKPNGYCVAQCESLWIHVGTIKNMIGYAKKLFKKVEYANISIPTYPCGCIGILCCSKTDTGLTKPNKKLESKEFADLKYYNYENHSAAFKLPAFLLKEIENI”, “soluble”.
Regarding “MAHHHHHHMDKYTKVKNIGKGNMGTCTLARNNEDGKYYVIKQVDLTRMSKKDRQQSLNEARVLSSLRHPNIINYVDSFLARKSDNLCIVMEYAESGDVCTRLKKHYGVNVPERQVVDWLIQLVLSLDYVHQRKILHRDVKTQNIFLTHENLIKLGDFGIARTLANTYDQAQTFVGTPYYLSPELILEQPYDHRSDVWALGVVLYEMLTLKHPFNAKDMKGLLQRILAVHYDPLPTMYSAELRDIVARMLVRDPAGRIKLDEILQIPIVRERIRQWLKEPDVVPQHYVRSLCKHHLLPDFQDEATAMPSTRSAARAAAAMAHEEWRTTSEATSAQTDGDVCARKDTDTRPHVTLGGPFSIPSTAARTAAAVCTSSADEESSDGVRPSIPPLKPYSNLPQLGMASPQLYTPQLPQMHPRVQSNNRASSPSRLFRSPFSTPSVARSAALPISRQQGDPVSQSSPAPLPLQRPIARAKAPTRPYARPYVAQPHLSPSPGYLFAANPRKNPIDARRQQSSRPSGPYLNPLFAAPRQMAPAYRSLVPPLPPPPDIKAMLQRAAAERARR”, the “soluble on expression in E. coli” value is reported as “not soluble”.
The entry for “MAHHHHHHMDYAAAIKQQAEDLQDELKDLALWQEEVARQHEVNKMKKSATFVTNSVPPIRGTVPSLKEAVLKSAGVVEKEDPVKKQKDKGNELFQSGKLQEAVEAYAVGIDLDPEGPMAHVLYGNRALCYLKLERWSDAERDASSCVRLNRTYAKGYFRRATARKQLGNLKGARTDLEAVLALSPNDVSATNEMSLVTKMIRADRDGAEPVTRKKIVITEVDDDDDEQCVGEGAQDKTASPSVIESNTGRHPNTVGDQVVKNEIAELERFRAAQRDAQEARSRERETKLQYKGRTSSRVEIVEEINNESKEGVVVSSSPLSLNNGVTSASAQECPSRELAAVSTSGAAQRPATFKDKKMNEPVVPRMLKPTVKWTKDTLKAPKSFTEFERVFLDLKDDEELLCFYVSVIPPGSMQVLFGSNMTPDILLGMLKAAGRLSGTSTVSFLKGLCTVKRVRDISLFFDDCEKKVVEEVMDVVVSCGASDEDVSLFRRQLGVI” is “soluble”; for “MAHHHHHHMDYRQKAARLPRSAEEKSRWRRVIIILEHCPLAVVRGKYGFELLAERHRAHHARYKQDPAEWRPDVVHQALLHLMDSPLNRAGMLQVFLRTKKGVVIAVDPRLRVPRHMRLFEKMMVSCLYRMKVRAANGSVSLLRVVKNPVTDHIPANCTLIRVEKDGDAVPDIFAYCATCGTNRHADGSTSENVGTATACSSSAGSDAKEPHFAQKHRDLADAKQFRPFAFIIGGMSKGDVDAPYAPRAQVKSIRLGDRGMSAAAACSVIIHGFEEEWLREDNEAC” it is “not soluble”; for “MAHHHHHHMEDNDWTGHHSGDGDQNEGMMLNRMEAVMDEVEKLRNLNGALTLELQLAEKKLVIRHERIETLKHGLRQECAAKQELQRTLEAERVCHQAQLQDARNDALHWRQLYDDLLNNSHTRSRKHNGRHRNEHRSSTPTLEAALTSREPSSLADSPVAMGHGIIVKPIRGGGQKELN” it is “soluble”.
The result for “MAHHHHHHMEYMHHIQGVVVLNDSGNRVFVKYYLNEDMKARGVLTTLEKQRALERVIYDAVSAPKRNWAASKDGDIVLHDVHSILFHVWGSITFAIVGDIKENEMVMHTVLRCIVDALQRILKTQDITHKGILEKYDALVLAVDEVIDDGIVLETSAQNVADDVAPFMADAETDTARSALSKVNEYLKENL” reads “soluble”; that for “MAHHHHHHMFHLWPLRPQPNRKPLGSKVVCWPQRRQIPPAPRQVWISQTRRRGPPCSVKEGEPSWRQGTRPDWPELKRSQRQSTAGRATDLSVDKAIPFGALLPCGEASKQHQQQQPNATGNWHDDADAPKEGLETN”, “soluble”.
The entry for “MAHHHHHHMFRGRIELIIGPMFAGKTTELMRRVKREIHARRSCFVIKYSKDTRYDEHNVASHDQLMLRAQAAVSQLTEVRDTWKRFDVLAIDEGQFFSDLVDFCNTAADAGKVVMVSALDGDYRRKPFGQICELVPYCEAVDKLTAVCMMCHEQPACFTRRTVNVEQQELIGGADMYIATCRECYSKQQLPSIEEMRTQRMAIKEVEKRYLGLSDKRATASPQTPEKPAGGWCTKAGVATLPTMVKEGAASSGASAGMKSGRGLCEMQAFTTETPKYQRVEPACTASAASSE” is “soluble”; for “MAHHHHHHMGGCVVSVMAKRNAAQVMPDPRAEALERRRAQCGGNFVQRVPGTESEHASAIYRIAGVTAEQHEAILAAAAARPTFYTTLMRHCAERTDQRVLGYRPVKCVTKEPAPSKSSGSTSEPAKKERLMSITHFDEVVHVTYSEMEERIFHFGAGLAALGVTANGNVSIYLDTCVEWLIGIYGIWSCSAVAATVYANLGEAALAHALHETESQAILCGSVNVANVLKLMKNGVMPQVPIIHVGALPASLDTHGVQVVSFKQVEMIGAAHLEGGAAKGTGPLNDDDLALIMYTSGTTGDPKGVMHTHRTLAAGLHTLEPRVIDLLGQPRPDDVYLSYLPMAHIMEFTITNLFIFRGAFIGFGTPRTLTDTTARPHGDLLTFNPSMLAGVPRIFDTLKKAVEAKLPPVGTLKRQVFDHAYQSRLAAMKEGKDTPFWNEKVFAAPRAVLGSRLRIMLSGGGPLSAATHEFVNVVFGRVVIGYGLTETICVGAIQIPGDTETNVTGLMEPGQEIKLLDIDEYKHTDTPEPRGEMLSRGPYLFKGYYKQPELTREVLDEDGWFHTGDVGSFTADGKMRIVGRVKALAKNCLGEYIALEALEAVYSSNELLQPNGVCVLVHPDKPYITALALTDEARATSFAAKHGIEGTYPALLKDQRFQQAAAISMADTARASNRASFECVKRVRVIDDEWTPENEILTAAQKLKRRVIDAQYAQTIAELFADD” it is “not soluble”.
For “MAHHHHHHMGGPPTIEELKREKIIPHVFPDENVDLTVDMYISFKSGKEVNHGNILDLAGTGSVPRNIKFSEEPPEDYCYILFMIDPDFPSRRRPDGRDYVHWAVSGIKSKELVKGTDKNCITLLPYVGPSIKKGTGLHRISFILSLVKEENKGNVTGVPLYRGEHYITRVKFNNCQSAYNVIQMNDMKIVGFNWCQMRRK”, the “soluble on expression in E. coli” value was “soluble”.
In the case of “MAHHHHHHMGISVSHLLERLRTLFEPLEVVCALQLKCLLETRQLDYCNVSLNELQRAEAGLRSLLVDHPLDIEVGAQWEHLEDELQRLHVRFSVPVPTFRLLVRRSARALRSAVRALGWDGKIQRRLWQEEGEEPRDDGVQEPLRAFDAGGLSTCTVDEICNEGGVQDRSAAVFSAVAKLYHHRLALGAQSLVAAERLGPALGANVRAASRVPSLTLPNSAADPTHPRFKADLYAVSPDALSCTAARREAYAAS”, the “soluble on expression in E. coli” value was “not soluble”.
The entry for “MAHHHHHHMGKVKKQANHAIKKILMKEKSLAMKKKREAESYHETPESNTTTQATKDYAAVLFRKALVTQAAPTRTAHFLSYNTALGPPYRIWLDTNFINFSMQNKIDIVQGLMDCLLAKVIPCICDCVFAELEKLGKKFRIALKLARDKRFERLTCDSKYADDCVVRTVTQHPIYIVATCDQELKRRLRKVPGVPIMYIAKHRYTIERLPEAYGAPE” is “not soluble”.
The entry for “MAHHHHHHMGLTDLFRRETPQERIRMYKRQLDRTCRDLDRERNKLSTQERKIMMEMKKMAKQDQVDAVRIMARDLVRTRKYNQKMYRMRTQIQGVSLRMQTMQSSAQMADAMKGVTKAMRSMNKKMNIPEIQKIMREFEKQNEMMGMKEDMMNDAVDEVMDDDGMEEEETEQEIQKVMDEAGLEFRTKVGVTDTALPQKSTETQGETDEELDARLAALKASMK” is “soluble”.
The entry for “MAHHHHHHMGNTTDPGAAPLHSSGFFKISARFPKAAVAASGAGPSLKRRRAEAFVVGDDGVPTLRTTAIAPGEQVGGDGTAEPFEFFKAQQDAFMNDIEGIKDAQLQRFNRKARRIMKSRRAWASSSSSGRHANSQQHSSSSGTHVTGSGALSKTGAKKTKPKRY” is “soluble”; for “MAHHHHHHMGRASKDKRDIYYRKAKEEGYRARSAYKLLQLHEEFGILRREEIRTGVVDLCAAPGSWSQVLSNHLCGSQPGSAAEACEGDEAINSEASQRPRIVAVDLQEMMPIDGVQLLQGDITSEWTAREIIRLLNGDSSSVPECSDATALSTAGAINDFNNGRGNNVSEEGKSSQQRSDCGVGLMNERNNASECVDGDNNNNNSNNNDDRNGGDAGASTRPVAGRKADLVVCDGAPDVTGMHELDEYLQHHLLLAALNITTFVLRRGGTFVTKMFRGPNTPFLVAKAEVFFRQVTIAKPKSSRNASMEAFMVCQNYDPPASYQPSFERPLTQTTSCFTPAAPALHLAAVDAQRMSSDNVNNGELHHSGVTDIVDEAYAVESVIVPFLACGDLTGYDADMCYDRGESDVVLPPVQPPLQAPYIAISEAVKERTKRQRVG” it is “not soluble”; for “MAHHHHHHMGSTGRKAVDEINHWIAYIDCALSHPHPLPKGKHVFRSDLSTVPEVRDIYDCLYKLYAEESASASFREPVNALELGVFNYYEVVTEPMSLRTVLDRIAEGGHYSQASQVLADVEKIWSNCEKYNGADSALVKEAKKCQGILTRLRERLAEEQPAPNAELDKIISAFESADESVLGELEAYFRREDPSLIISNGDVDLTALRVKHLKAMKAILERAMNGGGGRG” it is “not soluble”.
“MAHHHHHHMGTLEAQTQGPGSMLEKKTFKSSHTNAFHDFQARVYVADTDFSGVVYHARYLEFFERGRSEFLRDTGFNNTLLASGVEGEKLFFVVRHMEINFSRPAQIDNLLTIKTRISRLQGARFFMEQYILHGESMLVTAKVEIALINEEGKPRRLPKELFSTIVV”: the “soluble on expression in E. coli” value was “soluble”.
The result for “MAHHHHHHMGTLEAQTQGPGSMNDYKLFRCIQCGFEYDEALGWPEDGIAAGTRWDDIPDDWSCPDCGAAKSDFEMVEVARS” reads “soluble”.
The result for “MAHHHHHHMGTLEAQTQGPGSMVTAEAIDQRTFRRVLGQFCTGVTIITTVHEGNPVGFACQSFAALSLDPPLVLFCPTKVSRSWKAIEASGRFCVNILHEKQQHVSARFGSREPDKFAGIDWRPSDLGSPIIDGSLAHIDCTVHDVHDGGDHFVVFGKVHGLSEVPERKPRPLLFYRGEYTGIEPEKNTPAQWRDDLEAFLTATTADTWL” reads “soluble”.
